# Measured values reported in the nanobody polyreactivity screen of Harvey et al. (2022).
# Assay: yeast display, Sf9 membrane polyspecificity reagent, FACS + sequencing; frameworks hold sequencing errors
# Method in brief: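 Galactose induction of a Saccharomyces cerevisiae BJ5465 synthetic nanobody display library ran 36–48 hours. The cells were then stained for 1 hour at 4 °C with 10% biotinylated, detergent-solubilized Sf9 membrane reagent, pulled down on streptavidin microbeads and FACS-sorted into low and high (top ~1%) gates on expression and reagent-binding fluorescence. Labels for polyreactivity follow the gate of origin.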
row,Sequence,polyreactivity (PSR sort gate)
1,QVQLVESGGGLVQAGGSLRLSCAASGSIFYRNTMGWYRQAPGKERELVAAITRGTRTYYADSGKGRFTISRDNAKNTVYLQMNSLKPEDTAVYYCNARFVGRTGGSFDYWGQGTQVTVSS,high polyreactivity
2,QVQLVESGGGLVQAGGSLRLSCAASGSIFYRNTMGWYRQAPGKERELVAAITTSGGSTYYADSVKGRFTISRDNAKNTVYLQMNSLKPEDTAVYYCAARTWERWYRYYYWGQGTQVTVSS,high polyreactivity
3,QVQLVESGGGLVQAGGSLRLSCAASGSIFYRNTMGWYRQAPGKERELVASINTGTGTYYADSVKGRFTISRDNAKNTVYLQMNSLKPEDTAVYYCNKVSYVKYGYWGQGTQVTVSS,high polyreactivity
4,QVQLVESGGGLVQAGGSLRLSCAASGSIFYRNVMGWYRQAPGKERELVAAISSGTSTYYADSVKGRFTISRDNAKHTVYFPMNSLKPEDPAVYDCAADGLHYYGQRWYYGVDYWVQGTQVTVSS,low polyreactivity
5,QVQLVESGGGLVQAGGSLRLSCAASGSIFYRNVMGWYRQAPGKERELVAAITWSGGSTYYADSVKGRFTISRDNAKNTVYLQMNSLKPEDTAVYYCAAASKGTYRGKVSGYYYWGQGTQVTVSS,high polyreactivity
6,QVQLVESGGGLVQAGGSLRLSCAASGSIFYRYAMGWYRPAPGKERELVAAISSTGSTYYADSVKGRFTISRDNAKNTVYLQMNSLKPEDTAVYYCAARQGYRSYRRYDYWGQGTQVTVSS,high polyreactivity
7,QVQLVESGGGLVQAGGSLRLSCAASGSIFYRYAMGWYRQAPGKERELVAAISSGGSTYYADSVKGRFTISRDNAKNTVYLQMNSLKPEDTAVYYCAAKHYYYSPYVRYDPPPGYYWGQGTQVTVSS,high polyreactivity
8,QVQLVESGGGLVQAGGSLRLSCAASGSIFYRYAMGWYRQAPGKERELVAAISWGGGRTYYADSVKGRFTISRDNAKNTVYLLMKSLKPEDTAVYYCNAVQSYYTVHRLDYWGQGTQVTVSS,high polyreactivity
9,QVQLVESGGGLVQAGGSLRLSCAASGSIFYRYAMGWYRQAPGKERELVAAISYNGGRTYYADSVKGRFTISRDNAKNTVYLQMNSLKPEDTAVYYCNAAGRDDAYDYWGQGTQVTVSS,high polyreactivity
10,QVQLVESGGGLVQAGGSLRLSCAASGSIFYRYAMGWYRQAPGKERELVATISLSGGSTYADSVKGRFTISRDNAKNTVYLQMNSLKPEDTAVYYCAAGGQYYIIRYDYWGQGTQVTVSS,low polyreactivity
11,QVQLVESGGGLVQAGGSLRLSCAASGSIFYRYDMGWYRQAPGKERELVADISWSSGRTYYADSVKGRFTISRDNAKNTVYLQMNSLKPEDTAVYYCATDDFWNVKFYAYYPEFDYWGQGSQVTVSS,low polyreactivity
12,QVQLVESGGGLVQAGGSLRLSCAASGSIFYRYTMGWYRQAPGKERELVAGITFGAGTYYADSVKGRFTISRDNAKNTVYLQMNSLKPEDTAVYYCNAKHLPRHRDYWGQGTQVTVSS,low polyreactivity
13,QVQLVESGGGLVQAGGSLRLSCAASGSIFYSNAMGWYRQAPGKERELVAAISGSGGTTYYADSVKGRFTISRDNAKNTVYLQMNSLKPEETAVYYCAAKPSVRVRLSDYWGQGTQVTVSS,high polyreactivity
14,QVQLVESGGGLVQAGGSLRLSCAASGSIFYSNTMGWYRQAPGKERELVAAISRGGSTYYADSVKGRFTISRENAKNTVYLQMNSLKPEDTAVYYCAARYRWAPAYDYWGQGTQVTVSS,high polyreactivity
15,QVQLVESGGGLVQAGGSLRLSCAASGSIFYSNVMGWYRQAPGKERELVAAIRYSGVGTYYADSVKGRFTISRDNAKNTVYLQMNSLKPEDTAVYYCNAVTKVGYLRRRDYWGQGTQVTVSS,low polyreactivity
16,QVQLVESGGGLVQAGGSLRLSCAASGSIFYSYAMGWYRQAPGTERELVAAISWDASTYYADSVKGRFTISRDNAKNTVYLQMNSLKPEDTAVYYCNADIPYYFVYDAYDYWGQGTQVTVSS,low polyreactivity

row,Sequence,polyreactivity (PSR sort gate)
1,QVQLVESGGGLVQAGGSLRLSCAASGSIFYSYTMGWYRQAPGKEMELVAAINSGGSTYYADSVKGRFTISRDNAKNTVYLQMNSLKREDTAVYYCAARRTTSSGGYYYWGQGTQVTVSS,high polyreactivity
2,QVQLVESGGGLVQAGGSLRLSCAASGSIFYTNAKGWYRPAPGKERELVAAISYGGTTTYADSVKGRFTISRDNAKNTVYLQMNSLIPEDTAVYYCNADWLYYGYWGYGHIWYDFWGQGTQVTVSS,low polyreactivity
3,QVQLVESGGGLVQAGGSLRLSCAASGSIFYTNALGWSRQARGKERELVAAMSISGSTYYADSVKGRFTISRDNAKNTVYLQMNSLKPEDTAVYYCAAGPGYVRYPRSGVWYVTLYDYWGQGTQVTVSS,high polyreactivity
4,QVQLVESGGGLVQAGGSLRLSCAASGSIFYTNAMGWYRQAPGKERELVAAIRKSGGSTYYADSVKGRFTISRDNAKNTVYLQMNSLKPEDTAVYYCNKLYRVPQDLHDYWGQGTQVTVSS,high polyreactivity
5,QVQLVESGGGLVQAGGSLRLSCAASGSIFYTYAMGGYRPAPGKERELVAAISSGGSTTYADSVKGRFTISRDNAKNTVYLQMTSLKPEDTAVYYCNTSYRKKKRYYYWGQGTQVTVSS,high polyreactivity
6,QVQLVESGGGLVQAGGSLRLSCAASGSIFYTYAMGWYRQAPGKERELVADITTNGGNTYYADSVKGRFTISRDNAKNTVYLQMNSLKPEDTAVYYCARDRYDEPDEGDYDYWGQGTQVTVSS,low polyreactivity
7,QVQLVESGGGLVQAGGSLRLSCAASGSIFYTYVMGWYRQAPGKERELVAAISASGVRTYYADSVKGRFTISRDNAKNTVYLQMNSLKPEDTAVYYCAADRQRADYYWGQGTQVTVSS,high polyreactivity
8,QVQLVESGGGLVQAGGSLRLSCAASGSIFYTYVMGWYRQAPGKERELVAAISASGVRTYYADSVKGRFTISRDNAKNTVYLQMNSLKPEDTAVYYCAARYATWYFRRGRKTSDYDYWGQGTQVTVSS,high polyreactivity
9,QVQLVESGGGLVQAGGSLRLSCAASGSIFYVNAMGWYRQAPGKERELVAAISVRGGRTYYADSVKGRFTISRDNAKNTVYLQMNILNPEDTAVYYCATRISTVGRYDYWGEGTQVTVSS,high polyreactivity
10,QVQLVESGGGLVQAGGSLRLSCAASGSIFYVNGMGWYRQAPGKEREFVARITLSGTSTYYADSVKGRFTISRDNAKNTVYLQMNSLKPEDTAVSYCAAPYFTYGQDDDDYWGQGTQVTVSS,low polyreactivity
11,QVQLVESGGGLVQAGGSLRLSCAASGSIFYVYAMGGYRQAPGKERELVAAISRRGARTYYADSVKGRFTISRDNAKNTVYLQMNSLKPEDTAVYYCNADQYYTVGYSAEYEYWGQGTQVTVSS,low polyreactivity
12,QVQLVESGGGLVQAGGSLRLSCAASGSIFYVYAMGWYRQAPGKERELVAAISDDGDTYYADSVKGRFTISRDNAKNTVYLQMNSLNPEDTAVYYCAAEGGANEENSSPEYDYWGQGTQVTVSS,low polyreactivity
13,QVQLVESGGGLVQAGGSLRLSCAASGSIFYVYAMGWYRQAPGKERELVAAITNYADSVKGRFTISRDNAKNTVYLQMNSQKPPDTAVYYCAADWWRVEMDYWGQGTQVTVSS,low polyreactivity
14,QVQLVESGGGLVQAGGSLRLSCAASGSIFYVYAMGWYRQAPGKERELVAAITSSGTTNYADSVKGRLTISRDNAKNTVYLQMNSLKPEDTAVYYCAADPDSGQVPFDYWGQGTQVTVSS,low polyreactivity
15,QVQLVESGGGLVQAGGSLRLSCAASGSIFYVYAMGWYRQAPGKERELVAAITWSGGSTYYADSVKGRFTISRDNAKNTVYLQMNSLKPEDTAVYYCAADEGYDYPYYYWGQGTQVTVSS,high polyreactivity
